The values below come from the supplement of paper PMC9112550, “Optimization of the antimicrobial peptide Bac7 by deep mutational scanning” (BMC Biology, 2022).
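Further: peptides expressed intracellularly from a pBAD plasmid library in pooled LB shake-flask culture, induced with 0.3% L-arabinose, DNA abundance read by NGS, three biological replicates, DESeq2 with apeglm shrinkage.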

This data set relates to Escherichia coli TOP10. Kind of data set: shrunken log2 fold change of peptide-encoding DNA abundance (4.5 h post-induction vs induction); higher = less antimicrobial activity (less host growth inhibition). Particulars: time post-induction: 4.5 h; library: site-saturation at positions 5, 18, 19, 20.
Take RRIRERPPRLPRPRPRPKHQPRP: the “shrunken log2 fold change” value was -0.0699.
With RRIRLRPPRLPRPRPRPIRFPRP the figure was -0.185.
With RRIRTRPPRLPRPRPRPVWYPRP the figure was -0.456; with RRIRARPPRLPRPRPRPTDVPRP, 0.141.
With RRIRARPPRLPRPRPRPACAPRP the figure was 0.922.
For the sequence RRIRMRPPRLPRPRPRPMYCPRP, the “shrunken log2 fold change” value was -0.0254.
With RRIRFRPPRLPRPRPRPKNCPRP, the “shrunken log2 fold change” value amounted to 1.35.
With RRIRARPPRLPRPRPRPYQYPRP the figure was -0.352; with RRIRHRPPRLPRPRPRPSEDPRP, -0.00172.
With RRIRMRPPRLPRPRPRPSHNPRP the figure was -0.194.
With RRIRIRPPRLPRPRPRPGFDPRP the figure was 0.027; with RRIRTRPPRLPRPRPRPHKTPRP, -0.035.
Turning to RRIRIRPPRLPRPRPRPYGPPRP, the “shrunken log2 fold change” value is -1.06.
With RRIRTRPPRLPRPRPRPQMLPRP the figure was -0.0274.
With RRIRNRPPRLPRPRPRPHYTPRP the figure was -0.0895; with RRIRIRPPRLPRPRPRPKHMPRP, -0.451; with RRIRPRPPRLPRPRPRPSACPRP, 0.0137.
Turning to RRIRCRPPRLPRPRPRPCSGPRP, the “shrunken log2 fold change” value is -0.513.
With RRIRCRPPRLPRPRPRPWHKPRP the figure was -0.256; with RRIRWRPPRLPRPRPRPIACPRP, 0.0997; with RRIRYRPPRLPRPRPRPIKFPRP, -0.244.
For the sequence RRIRGRPPRLPRPRPRPVPWPRP, the “shrunken log2 fold change” value is 0.526.
As to RRIRPRPPRLPRPRPRPDVTPRP, the “shrunken log2 fold change” value is -0.399.
For RRIRLRPPRLPRPRPRPSPWPRP, the “shrunken log2 fold change” value is -0.149.
Regarding RRIRFRPPRLPRPRPRPITNPRP, the “shrunken log2 fold change” value was -0.352.
With RRIRHRPPRLPRPRPRPYVTPRP the figure was -0.182; with RRIRKRPPRLPRPRPRPHDSPRP, -0.0516.
Regarding RRIRARPPRLPRPRPRPDGGPRP, the “shrunken log2 fold change” value stood at 0.432.
With RRIRLRPPRLPRPRPRPQEAPRP the figure was 0.0514; with RRIRPRPPRLPRPRPRPGGAPRP, 0.47.
With RRIRCRPPRLPRPRPRPGMLPRP the figure was -0.135.
With RRIRDRPPRLPRPRPRPRMMPRP, the “shrunken log2 fold change” value turned out to be 0.312.
With RRIRSRPPRLPRPRPRPRRIPRP the figure was 0.135; with RRIRERPPRLPRPRPRPCQKPRP, -0.0135; with RRIRPRPPRLPRPRPRPLFYPRP, -0.383.
With RRIRRRPPRLPRPRPRPPRQPRP the figure was 1.04; with RRIRQRPPRLPRPRPRPNAGPRP, 0.0853.
For RRIRERPPRLPRPRPRPELTPRP, the “shrunken log2 fold change” value amounted to 0.534.
For RRIRLRPPRLPRPRPRPMAWPRP, the “shrunken log2 fold change” value was -0.0215.
As for RRIRIRPPRLPRPRPRPYFCPRP, the “shrunken log2 fold change” value is -1.26.
With RRIRQRPPRLPRPRPRPDEMPRP the figure was -0.0225.
With RRIRYRPPRLPRPRPRPPQLPRP the figure was -0.371.
With RRIRVRPPRLPRPRPRPNPQPRP the figure was 0.000771.
With RRIRLRPPRLPRPRPRPDSFPRP, the “shrunken log2 fold change” value is -0.0169.
With RRIRWRPPRLPRPRPRPFLIPRP the figure was -0.488; with RRIRSRPPRLPRPRPRPPPIPRP, 0.572.
Take RRIRERPPRLPRPRPRPTPVPRP: the “shrunken log2 fold change” value came to 0.059.
With RRIRMRPPRLPRPRPRPLDTPRP the figure was -0.0606; with RRIRTRPPRLPRPRPRPMPWPRP, 0.253; with RRIRNRPPRLPRPRPRPSGCPRP, -0.151.
Take RRIRFRPPRLPRPRPRPLKYPRP: the “shrunken log2 fold change” value is -0.262.
As to RRIRIRPPRLPRPRPRPAEKPRP, the “shrunken log2 fold change” value is -0.213.
With RRIRGRPPRLPRPRPRPMHGPRP the figure was 0.36; with RRIRVRPPRLPRPRPRPPFRPRP, 0.421; with RRIRGRPPRLPRPRPRPCHLPRP, -0.0648.
In the case of RRIRNRPPRLPRPRPRPSYKPRP, the “shrunken log2 fold change” value was -0.819.
Turning to RRIRCRPPRLPRPRPRPEWVPRP, the “shrunken log2 fold change” value was determined as 0.293.
With RRIRIRPPRLPRPRPRPGVAPRP the figure was 0.276; with RRIRFRPPRLPRPRPRPIPQPRP, 0.132.
With RRIRYRPPRLPRPRPRPQGWPRP the figure was 0.031.
With RRIRARPPRLPRPRPRPTDWPRP the figure was 0.712; with RRIRMRPPRLPRPRPRPLQSPRP, 2.75.
As for RRIRTRPPRLPRPRPRPCMVPRP, the “shrunken log2 fold change” value is -0.576.
With RRIRWRPPRLPRPRPRPVWPPRP, the “shrunken log2 fold change” value was found to be 0.909.
With RRIRPRPPRLPRPRPRPAWFPRP the figure was 0.117; with RRIRPRPPRLPRPRPRPHAAPRP, 0.3; with RRIRARPPRLPRPRPRPFRYPRP, -0.283.
For the sequence RRIRFRPPRLPRPRPRPRLQPRP, the “shrunken log2 fold change” value stood at 0.221.
With RRIRWRPPRLPRPRPRPDDGPRP the figure was 0.305.
With RRIRKRPPRLPRPRPRPMDMPRP the figure was 0.15; with RRIRIRPPRLPRPRPRPGMYPRP, 0.123; with RRIRDRPPRLPRPRPRPSPGPRP, 0.241.
With RRIRDRPPRLPRPRPRPNPTPRP the figure was 0.135.
Take RRIRGRPPRLPRPRPRPLHLPRP: the “shrunken log2 fold change” value amounted to 0.0533.
With RRIRERPPRLPRPRPRPNPFPRP, the “shrunken log2 fold change” value amounted to 0.0226.
In the case of RRIRWRPPRLPRPRPRPSEKPRP, the “shrunken log2 fold change” value is -0.153.
With RRIRARPPRLPRPRPRPSTLPRP the figure was 0.111; with RRIRCRPPRLPRPRPRPSLAPRP, 0.133; with RRIRSRPPRLPRPRPRPDWTPRP, -0.179.
With RRIRRRPPRLPRPRPRPHYWPRP the figure was 0.0315; with RRIRSRPPRLPRPRPRPDRDPRP, -0.0344.
Take RRIRWRPPRLPRPRPRPWRSPRP: the “shrunken log2 fold change” value was 0.49.
As to RRIRRRPPRLPRPRPRPKEDPRP, the “shrunken log2 fold change” value came to 0.196.
Regarding RRIRDRPPRLPRPRPRPECAPRP, the “shrunken log2 fold change” value is 1.58.
With RRIRLRPPRLPRPRPRPQKRPRP the figure was 0.0648; with RRIRKRPPRLPRPRPRPPMKPRP, 0.135.
For the sequence RRIRIRPPRLPRPRPRPGMSPRP, the “shrunken log2 fold change” value was -0.15.
With RRIRLRPPRLPRPRPRPHDVPRP the figure was 0.0205; with RRIRMRPPRLPRPRPRPRQHPRP, 0.47.
With RRIRFRPPRLPRPRPRPLVAPRP the figure was -0.00793.
With RRIRKRPPRLPRPRPRPPWTPRP the figure was 0.527.
